Here are results for 1 substance from article PMC6650474.

In this test the target is Skeletal muscle actin (chicken) (UniProt P68139).

The substance “Mouse utrophin residues 1-H416 with C-terminal biotin and FLAG tags (from UniProt E9Q6R7 1-416) (domain or fragment)” gave a KS of the utrophin-based loaded in vitro motility assay (utrophin concentration that arrests motion), with PfMyoA K764E on the surface, 30 °C of 3.04 nM; a KS of the utrophin-based loaded in vitro motility assay (utrophin concentration that arrests motion), with PfMyoA S19A on the surface, 30 °C of 2.42 nM; a KS of the utrophin-based loaded in vitro motility assay (utrophin concentration that arrests motion), with PfMyoA WT on the surface, 30 °C of 1.4 nM; a KS of the utrophin-based loaded in vitro motility assay (utrophin concentration that arrests motion), with PfMyoA ∆N on the surface, 30 °C of 10.8 nM.
